In data set [1] the test system is MS2 coat protein. Kind of data set: apparent KD of MS2 coat protein; designed switch direction (-1 OFF switch, 1 ON switch): 1; higher = weaker reporter binding. In outline: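 The apparent KD reported per design is the median over clusters of curve fits to normalised cluster fluorescence. The RNA switches were transcribed on Illumina chips by stalled E. coli RNA polymerase. SNAP-549-labelled MS2 coat protein was titrated from 0.7 or 1.5 nM, doubling up to 3 µM, in Tris-HCl pH 7.5 buffer containing KCl, MgCl2, BSA, DTT, tRNA and Tween-20, with no input, 200 uM small-molecule ligand, or an oligonucleotide input.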

Data set [2] deals with MS2 coat protein. As to the kind of experiment: apparent KD of MS2 coat protein; higher = weaker reporter binding. The following applies: Eterna round: R107. The procedure, abridged: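 Designed RNA switches were transcribed on-chip from Illumina sequencing clusters. SNAP-549-labelled MS2 coat protein was titrated onto them in twofold steps from 0.7 or 1.5 nM to 3 µM in 100 mM Tris-HCl pH 7.5, 80 mM KCl, 4 mM MgCl2, either without or with constant ligand. Apparent KD reflects the per-design median of normalised cluster binding-curve fits.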

The mark [3] stands for this setting: input ligand: microRNA oligo, concentration not stated.
[4] abbreviates: input ligand: theophylline 20 uM.
The mark [5] stands for this setting: input ligand: theophylline 2 mM.
Setting [6] is: input ligand: tryptophan 2.4 mM.

The results in this text go back to the supplement of paper PMC9170038.

In the case of “UUAUUAUUUACAUGAGGAUCACCCAUGUUUUUAUGUCAGAGAUAGGAUAUAGUAGUCUCGUUUUACUAGAAGGAUCUUUUUAUU [JR_SSNG3_Sub084] (Eterna round: R96, puzzle: Same State NG 3)”, the figures for the “apparent KD of MS2 coat protein” value in the data set on MS2 coat protein [1] (input ligand: FMN 200 uM), in the data set with MS2 coat protein [1] (setting [3]) and in the data set on MS2 coat protein [1] (input ligand: none) were 0.0134 µM, 0.0158 µM and 0.0199 µM, respectively.
Take “GUUACAUGAGGAUCACCCAUGUAUGUGUGGGAGUAAGUGUCUUAGGAUAUCUAUUAUUUAAUUUUAGAGAAGGAAGAUUGUUGU [JMF's solution 27] (Eterna round: R96, puzzle: Same State NG 3)”: the “apparent KD of MS2 coat protein” value came out at 0.138 µM in the data set with MS2 coat protein [1] (input ligand: FMN 200 uM), 0.105 µM with MS2 coat protein [1] (setting [3]) and 0.12 µM in the data set on MS2 coat protein [1] (input ligand: none).
As for “GCGUUUAACGUAGGAUAUCGAGCUACAUGAGGAUCACCCAUGUCUUUGUAAAGUUUUUUUAAUUACGAGAAGGACGUUUUGCAU [JR_SSNG2_Sub072] (Eterna round: R96, puzzle: Same State NG 2)”, the “apparent KD of MS2 coat protein” value in the data set with MS2 coat protein [1] (input ligand: FMN 200 uM) is 0.0187 µM; in the data set on MS2 coat protein [1] (setting [3]), 0.0267 µM; in the data set on MS2 coat protein [1] (input ligand: none) it was 0.0358 µM.
For “ACAUGAGAGAAAGGAUAUGUUGUACCUACAUGUGACAUGAGGAUCACCCAUGUGGUAAGUAUGAGACAGAAGGUUCAGAUAUGU [Equivalence 32 - Jieux - Same State NG 2] (Eterna round: R96, puzzle: Same State NG 2)” the same measures were 0.0204 µM, 0.0511 µM and 0.0657 µM.
For “UAUGAAUUACAAGGAUAUUAAUAACAUGAGGAUCACCCAUGUGGCUGUGAGAGUUAGAUAAGCUAUAAGAAGGUGUGUGUGUUU [JR_SSNG2_Sub093] (Eterna round: R96, puzzle: Same State NG 2)” the same measures were 0.0931 µM, 0.196 µM and 0.267 µM.
As to “CUCGUCAACUCGGCCGCCACUGACGUGUGGUCAGGCCUGUAGAAACACAUGAGGAUCACCCAUGUCAGGACCGGGAGCUUUAUUA [theeternabot_exclusion_MS2_Trp_B_26]”, the figures for the “apparent KD of MS2 coat protein” value in the data set on MS2 coat protein [2] (input ligand: arginine 13.2 mM), with MS2 coat protein [2] (setting [4]) and in the data set with MS2 coat protein [2] (setting [5]) were 0.0318 µM, 0.0735 µM and 0.0616 µM, respectively.
Take “GUCUCAGACCGAGAUACCAGCUGGGUUUCCCACAUGAGGAUCACCCAUGUAUUCAGAUUAAGCCCUUGGCAGCUCAUCUAGGUCC [theeternabot_sameState_MS2_Theo_B_44]”: the “apparent KD of MS2 coat protein” value in the data set with MS2 coat protein [2] (input ligand: arginine 13.2 mM) is 0.0218 µM; with MS2 coat protein [2] (setting [4]) it was 0.0206 µM; with MS2 coat protein [2] (setting [6]) it was 0.0166 µM.
“UUAUUUAACGGAAGGAGCGCGGAAUAAUAAGUGGGUAAACAUGAGGAUCACCCAUGUAAACCGCAGGUAGGUCGCCGAUAUUUAU [AstrosEXyARgB#3]”: the “apparent KD of MS2 coat protein” value was 0.0662 µM in the data set with MS2 coat protein [2] (input ligand: arginine 13.2 mM); 0.0793 µM in the data set with MS2 coat protein [2] (input ligand: none); 0.0889 µM with MS2 coat protein [2] (setting [4]); 0.0981 µM with MS2 coat protein [2] (setting [5]); 0.0747 µM with MS2 coat protein [2] (setting [6]).
Turning to “CACAUGAGGAUCACCCAUGUCUGAACUGAAGGAGCGCUAAACAAGGCAGGUAGGUCGCGGAAUCCCGUGUGCAUAUGCACACGGG [9.Z]”, the “apparent KD of MS2 coat protein” value was 0.0241 µM in the data set with MS2 coat protein [2] (input ligand: arginine 13.2 mM); 0.0156 µM in the data set on MS2 coat protein [2] (input ligand: none); 0.0241 µM in the data set with MS2 coat protein [2] (setting [4]); 0.0204 µM in the data set with MS2 coat protein [2] (setting [5]); 0.0189 µM in the data set with MS2 coat protein [2] (setting [6]).
With “AAAUAAAUACAUGAGGAUCACCCAUGUGAAGGAGCGGCCGUUAGGCCAGGUAGGUCGCGCAUGAAUAACUCCGUGCAAAAGCACA [MAT - Exclusion Arginine A - Mod of Eli - D18]”, the “apparent KD of MS2 coat protein” value in the data set on MS2 coat protein [2] (input ligand: arginine 13.2 mM) amounted to 0.00962 µM; with MS2 coat protein [2] (input ligand: none), 0.0112 µM; with MS2 coat protein [2] (setting [4]) it was 0.0169 µM; in the data set with MS2 coat protein [2] (setting [5]), 0.0133 µM; with MS2 coat protein [2] (setting [6]) it was 0.0127 µM.
“GGCCAUGGAAACAUGGCGGCGGCGUAUGCGCGAGGACCGGUACGGCCGCCACUCGGGCGACAUGAGGAUCACCCAUGUUCCUCAU [ETA NP+V+V2 #25]”: the figures for the “apparent KD of MS2 coat protein” value in the data set on MS2 coat protein [2] (input ligand: arginine 13.2 mM), in the data set on MS2 coat protein [2] (setting [4]) and in the data set on MS2 coat protein [2] (setting [5]) were 0.127 µM, 0.243 µM and 0.275 µM, respectively.
Regarding “GCUGCUUAGGGAAGGAGCGCUGCGGAAUUGUGGAGGACAUGAGGAUCACCCAUGUUCCUGCGGCAGGUAGGUCGCUUUGGGCAGC [#17 Exclusion - Arginine B]”, the “apparent KD of MS2 coat protein” value in the data set with MS2 coat protein [2] (input ligand: arginine 13.2 mM) was 0.0328 µM; in the data set with MS2 coat protein [2] (input ligand: none), 0.0403 µM; in the data set with MS2 coat protein [2] (setting [4]) it was 0.0481 µM; in the data set with MS2 coat protein [2] (setting [5]), 0.0605 µM; in the data set on MS2 coat protein [2] (setting [6]), 0.0453 µM.
With “GUCGUGGUCGGAAGGAGCGACAUGAGGAUCACCCAUGUCUCCCGUUAUGGGAGUUCCUUAGGUCAGGUAGGUCGCCGACUGCGGC [#1 Exclusion - Arginine B Attempt #23 (Inspired by Omei)]”, the “apparent KD of MS2 coat protein” value with MS2 coat protein [2] (input ligand: arginine 13.2 mM) amounted to 0.0547 µM; in the data set with MS2 coat protein [2] (input ligand: none), 0.199 µM; with MS2 coat protein [2] (setting [4]), 0.17 µM; in the data set with MS2 coat protein [2] (setting [5]), 0.276 µM; with MS2 coat protein [2] (setting [6]), 0.181 µM.
